Data as given in article PMC5566378, “The human IL-17A/F heterodimer: a two-faced cytokine with unique receptor recognition properties” (Scientific Reports, 2017).

T1: human IL-17RC extracellular domain (human, UniProt Q8NAC3-2 21-467)
T1 construct: human IL-17RC full-length extracellular domain, residues 21-467 of UniProt entry Q8NAC3-2, secreted with the CD33 signal peptide; numbers count on: isoform Q8NAC3-2; also called IL-17RC ECD; source: GnTI-deficient HEK293S, transient expression, purified (anti-APP antibody column, Resource-Q, Superdex-200 SEC)
T1 sequence (looked up): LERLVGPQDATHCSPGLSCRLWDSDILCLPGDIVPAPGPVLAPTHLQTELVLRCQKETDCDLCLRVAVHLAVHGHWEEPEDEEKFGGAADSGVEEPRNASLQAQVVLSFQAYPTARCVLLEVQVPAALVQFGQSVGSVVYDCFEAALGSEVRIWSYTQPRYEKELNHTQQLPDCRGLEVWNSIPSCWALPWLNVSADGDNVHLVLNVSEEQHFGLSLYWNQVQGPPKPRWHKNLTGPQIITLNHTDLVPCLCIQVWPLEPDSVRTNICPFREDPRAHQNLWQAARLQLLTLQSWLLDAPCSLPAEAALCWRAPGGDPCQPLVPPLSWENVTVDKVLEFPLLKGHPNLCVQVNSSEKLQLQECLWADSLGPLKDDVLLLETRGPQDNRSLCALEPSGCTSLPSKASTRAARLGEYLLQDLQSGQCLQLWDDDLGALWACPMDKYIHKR

T2: human IL-17RC extracellular domain (human, UniProt Q8NAC3-2 21-467)
T2 construct: human IL-17RC, full-length extracellular domain, residues 21-467 of UniProt Q8NAC3-2, cloned behind the CD33 signal peptide; numbers count on: isoform Q8NAC3-2; also called IL-17RC ECD; IL-17RC receptor
T2 sequence (looked up): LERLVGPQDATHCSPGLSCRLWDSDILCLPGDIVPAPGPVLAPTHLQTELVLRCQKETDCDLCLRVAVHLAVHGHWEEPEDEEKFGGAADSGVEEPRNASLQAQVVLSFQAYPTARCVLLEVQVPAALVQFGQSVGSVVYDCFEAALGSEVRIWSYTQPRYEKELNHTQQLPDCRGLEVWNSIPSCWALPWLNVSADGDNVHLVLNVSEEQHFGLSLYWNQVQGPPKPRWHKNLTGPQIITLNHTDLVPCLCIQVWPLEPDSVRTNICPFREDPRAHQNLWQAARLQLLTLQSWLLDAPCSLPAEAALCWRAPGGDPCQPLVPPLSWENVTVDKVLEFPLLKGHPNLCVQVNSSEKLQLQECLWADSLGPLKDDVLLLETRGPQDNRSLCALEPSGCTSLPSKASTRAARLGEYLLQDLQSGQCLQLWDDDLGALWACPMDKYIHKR


Columns and labels:
Settings in all cases: both partners purified
[1] = target: T1, human IL-17RC extracellular domain; assay: SPR; Biacore 8K; IL-17RC ECD immobilised (about 500 RU) by amine coupling on a CM4 chip; cytokines as analytes in PBS pH 7.4, 3 mM EDTA, 0.05% Tween20; 20 °C, 30 µl/min; 1:1 Langmuir model, steady-state analysis for variants of weaker affinity; mean of at least five independent experiments
[2] = target: T3, human IL-17RA extracellular domain (human, UniProt Q96F46 33-320, biotin on the Avi-tag (BirA) for SPR measurements); assay: SPR; Biacore 8K; biotinylated IL-17RA ECD immobilised (about 500 RU) on a streptavidin SA chip; cytokines as analytes in PBS pH 7.4, 3 mM EDTA, 0.05% Tween20; 20 °C, 30 µl/min; 1:1 Langmuir model, steady-state analysis for variants of weaker affinity; mean of at least five independent experiments
T3 construct: human IL-17RA full-length extracellular domain, residues 33-320 of UniProt Q96F46, secreted with the CD33 signal peptide; The construct is described 'for crystallization'; the SPR sample is the same ECD biotinylated on its Avi-tag; In the crystal the complex was treated with PNGaseF and Endoglycosidase H and biotinylation is not mentioned; also called IL-17RA ECD; source: GnTI-deficient HEK293S, …

[3] = target: T4, human IL-17RA extracellular domain (human, UniProt Q96F46 33-320, biotin on the Avi-tag (E. coli BirA), for the SPR measurements only); assay: SPR; Biacore 8K; biotinylated IL-17RA ECD immobilised on a streptavidin chip (about 500 RU); cytokines as analytes in PBS pH 7.4, 3 mM EDTA, 0.05% Tween20; 20 °C, 30 µl/min; 1:1 Langmuir model or steady-state analysis
T4 construct: human IL-17RA, full-length extracellular domain, residues 33-320 of UniProt Q96F46, cloned behind the CD33 signal peptide; The same construct was used unbiotinylated for the complex and its crystals (treated with PNGaseF and Endoglycosidase H) and biotinylated for SPR; also called IL-17RA ECD; IL-17RA receptor; source: GnTI-deficient HEK293S, transient expression, secreted, purified (anti-APP …)

[4] = target: T2, human IL-17RC extracellular domain; assay: SPR; Biacore 8K; IL-17RC ECD amine-coupled on a CM4 chip (about 500 RU); cytokines as analytes in PBS pH 7.4, 3 mM EDTA, 0.05% Tween20; 20 °C, 30 µl/min; 1:1 Langmuir model or steady-state analysis

| Kd [1] | Kd [2] | fold reduction in affinity against wild-type IL-17F [3] | fold reduction in binding affinity against wild-type IL-17F [4] | Binder |
| --- | --- | --- | --- | --- |
| 4 nM |  |  |  | human IL-17F homodimer, wild type (ligand, UniProt Q96PD4 31-163, looked up, human IL-17F, residues 31-163 of UniProt Q96PD4, secreted with the CD33 signal peptide (P20138-1); also called IL-17F wt) RKIPKVGHTFFQKPESCPPVPGGSMKLDIGIINENQRVSMSRNIESRSTSPWNYTVTWDPNRYPSEVVQAQCRNLGCINAQGKEDISMNSVPIQQETLVVRRKHQGCSVSFQLEKVLVTVGCTCVTPVIHHVQ |
| 905 nM | 726 nM |  |  | human IL-17F homodimer, R77A (ligand, UniProt Q96PD4 31-163, looked up, human IL-17F, residues 31-163 of UniProt Q96PD4, secreted with the CD33 signal peptide, Arg77 to alanine; also called IL-17F R77A; source: HEK293S, transient expression, purified (as the wild type)) RKIPKVGHTFFQKPESCPPVPGGSMKLDIGIINENQRVSMSRNIESASTSPWNYTVTWDPNRYPSEVVQAQCRNLGCINAQGKEDISMNSVPIQQETLVVRRKHQGCSVSFQLEKVLVTVGCTCVTPVIHHVQ |
|  |  | > 5 fold | ≥ 200 fold | human IL-17F homodimer, Arg77 to alanine mutant (ligand, UniProt Q96PD4 31-163, looked up, human IL-17F, residues 31-163 of UniProt Q96PD4, cloned behind the CD33 signal peptide and the APP6-tag, R77A; also called IL-17F R77A; point mutant of the IL-17F homodimer; source: HEK293S, transient expression, secreted, purified) RKIPKVGHTFFQKPESCPPVPGGSMKLDIGIINENQRVSMSRNIESASTSPWNYTVTWDPNRYPSEVVQAQCRNLGCINAQGKEDISMNSVPIQQETLVVRRKHQGCSVSFQLEKVLVTVGCTCVTPVIHHVQ |
